Experimental data as given in article PMC12494543, “Identification of ALKBH6 as a nucleotide demethylase with a distinct substrate preference” (The Journal of Biological Chemistry, 2025).

Tests used:
[1] = substrate: C[n+]1cn([C@@H]2O[C@H](COP(=O)(O)O)[C@@H](O)[C@H]2O)c2nc(N)[nH]c(=O)c21; assay: FDH-coupled formaldehyde release demethylation assay; type: biochemical, human; settings: other: substrate of ALKBH6, Michaelis-Menten; 37.0 °C
Description: (§1) NMPs including 1meAMP (Jena Bioscience, NU-1029-1,) 7meGMP (Jena Bioscience, NU-1135S), 6me-AMP (Sigma, M2780) were purchased. N-methylated deoxy-NMPs were prepared by methylating chemically synthesized 30-mer oligonucleotide containing either dA, dG, dC, or dT by MMS (5%, v/v) (0.59 M) MMS (Sigma, 129925) and purified as described before ([17]). The oligonucleotides were digested with nuclease P1 (NEB) at 37 °C for 4 h to produce deoxy-NMPs. After heat inactivating the nuclease, dNMPs were purified by HPLC and used for the demethylation reaction. N-methylated NMPs were purified similarly, using RNA as the starting material. For the demethylation reaction, ALKBH6 (1 μM) and me-dNMPs (1 mM) were mixed in the dioxygenase reaction buffer and incubated at 37 °C for 30 min. Formaldehyde release was detected by FDH-coupled DNA repair assay as described before ([32], [33]). Briefly, 1 mM NAD+ and 0.01 U FDH were added to the dioxygenase reaction buffer containing methylated nucleotide and ALKBH6. NADH generated was detected by the characteristic absorption peak (340 nm) using a 96-well multimode reader (Synergy, Biotek Instrument). Formaldehyde production was quantified from the standard curve and the initial velocities were determined using various substrate concentrations. The results were plotted and analyzed using GraphPad Prism.

[2] = substrate: C[n+]1cnc2c(ncn2[C@@H]2O[C@H](COP(=O)(O)O)[C@@H](O)[C@H]2O)c1N; assay: as above; type: biochemical, human; settings: other: substrate of ALKBH6, Michaelis-Menten; 37.0 °C
Description: as §1

B1: ALKBH6 (Homo sapiens) (protein)
chain: MEEQDARVPALEPFRVEQAPPVIYYVPDFISKEEEEYLLRQVFNAPKPKWTQLSGRKLQNWGGLPHPRGMVPERLPPWLQRYVDKVSNLSLFGGLPANHVLVNQYLPGEGIMPHEDGPLYYPTVSTISLGSHTVLDFYEPRRPEDDDPTEQPRPPPRPTTSLLLEPRSLLVLRGPAYTRLLHGIAAARVDALDAASSPPNAAACPSARPGACLVRGTRVSLTIRRVPRVLRAGLLLGK
notes: His-tag; made in house
- Km [1]: 1.03 µM
- kcat [1]: 0.167 s⁻¹
- Km [2]: 0.96 µM
- kcat [2]: 0.18 s⁻¹
